Read-outs that look alike come from different tables or passages of the source.
How the values were obtained:
[1] = target: T1, melanoma differentiation-associated protein 5 (MDA5) (Homo sapiens (THP1 cells, endogenous), UniProt Q9BYX4)
[2] = target: T1, melanoma differentiation-associated …; experiment: immunoprecipitation; second IP (IP2): MDA5 eluted from IP1 with urea cracking buffer (6 M urea, 1% SDS, 65 °C), neutralised with T-20 IP buffer, incubated with antibody B on Protein G Dynabeads 2 h at 4 °C; IP analysed by western blot for MDA5; settings: both partners purified
[3] = target: T1, melanoma differentiation-associated …; experiment: immunoprecipitation; first IP (IP1): antibody A coupled to Dynabeads, incubated with THP1 cell lysate (native MDA5) 2 h at 4 °C, high-salt washes; IP analysed by western blot for MDA5; settings: one partner purified

T1 sequence (Q9BYX4 whole entry): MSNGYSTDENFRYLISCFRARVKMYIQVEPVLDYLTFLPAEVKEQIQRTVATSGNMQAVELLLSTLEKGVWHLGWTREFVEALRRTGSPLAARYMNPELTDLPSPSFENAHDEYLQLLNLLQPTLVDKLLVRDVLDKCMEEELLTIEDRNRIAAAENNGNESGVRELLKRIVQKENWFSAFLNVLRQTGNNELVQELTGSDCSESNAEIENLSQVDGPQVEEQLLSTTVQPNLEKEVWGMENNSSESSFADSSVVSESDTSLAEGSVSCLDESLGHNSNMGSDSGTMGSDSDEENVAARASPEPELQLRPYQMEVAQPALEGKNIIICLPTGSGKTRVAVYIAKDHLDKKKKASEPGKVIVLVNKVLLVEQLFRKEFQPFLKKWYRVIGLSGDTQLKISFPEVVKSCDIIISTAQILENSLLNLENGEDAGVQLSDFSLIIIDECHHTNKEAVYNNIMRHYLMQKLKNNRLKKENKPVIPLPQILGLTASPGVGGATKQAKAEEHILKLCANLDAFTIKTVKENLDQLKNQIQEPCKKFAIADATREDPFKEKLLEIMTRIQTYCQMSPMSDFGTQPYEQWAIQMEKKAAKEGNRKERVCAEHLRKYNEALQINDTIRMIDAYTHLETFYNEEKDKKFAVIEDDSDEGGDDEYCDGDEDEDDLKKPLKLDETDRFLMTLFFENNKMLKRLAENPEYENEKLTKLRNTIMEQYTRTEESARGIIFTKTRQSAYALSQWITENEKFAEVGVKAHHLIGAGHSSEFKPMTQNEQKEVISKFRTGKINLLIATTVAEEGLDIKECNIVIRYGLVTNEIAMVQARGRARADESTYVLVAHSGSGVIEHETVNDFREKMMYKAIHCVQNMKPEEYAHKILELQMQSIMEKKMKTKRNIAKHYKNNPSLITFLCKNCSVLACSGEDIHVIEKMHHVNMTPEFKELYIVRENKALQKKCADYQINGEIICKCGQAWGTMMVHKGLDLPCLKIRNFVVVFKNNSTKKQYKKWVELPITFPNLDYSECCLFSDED

B1: mAb 17 (antibody, V domains shown)
VH: QVQLQQSGAELVRPGASVTLSCKASGYTFADYEIHWVRQTPVHGLEWIGAIGPETGNTAYNQKFKGKATLTVDKSSSTVYMDLRSLTSEDSAVYYCTRGRILDWGQGTLVTVSA
VL: DVVMTQTPLSLPVSLGDQASISCRSSQSLVHSNGNTYLHWYLQKPGQSPKLLIYKVSKRFSGVPDRFSGSGSGTDFTLKISRVEAEDLGVYFCSQSTHIPYTFGGGTKLEIK
B1: binds [1].

B2: anti-MDA5 monoclonal antibody B (clone 22) (antibody, V domains shown)
VH: QVQLQQSGPELVKPGASVKMSCKASGYTFTDYVISWVKQRTGQGLEWIGEIYPGSGNTFYNEKFKGKATLTADKSSNTAYMQLSSLTSEDSAVYFCARSGDYDLDYWGQGTSVTVSS
VL: EIVLTQSPTTMAASPGEKITITCSASSSISSNYLHWYQQKPGFSPKLLIYRTSNLASGVPARFSGSGSGTSYSLTIGTMEAEDVATYYCQQGGSIPLTFGAGTKLELK
notes: Hybridoma was non-recoverable; In some radiolabeling experiments pooled ascites fluids from several hybridoma clones including antibody B were used instead; Preincubated with Protein G Dynabeads for the IP; also called Ab B; monoclonal antibody 22
B2: binds [2].

B3: anti-MDA5 monoclonal antibody A (clone 16) (antibody, V domains shown)
VH: QVQLQQSGPDLVRPGTSVKMSCKAAGYTFTNSWIGWLKQRPGHGLEWIGDIYPGGGDTNSNENFKGKATLTADTSSSTAYMQLSSLTSEDSAVYYCARSTVIMRGYFDVWGAGTMVTVSS
VL: DIQMTQSPASLSASVGETVTITCRASGNIHNFLAWYQQKQGKSPQLLVYNAKTLADGVPSRFSGSGSGTQYSLKINSLQPEDFGSYYCQHFWSTPLTFGAGTKLELK
notes: Monoclonal antibody raised against MDA5 (generated by C. Song and B. Jin); covalently coupled to Dynabeads for the IP; also called Ab A; monoclonal antibody 16; source: hybridoma cells grown in bioreactors (CELLline)
B3: binds [3].

Reference: paper PMC13506345, “Loss of cellular RNA homeostasis contributes to MDA5 activation during virus infection” (Nature Immunology, 2026)
